According to US9284543B2, “Neutral active soluble truncated PH20 polypeptides and uses thereof” (Halozyme, Inc., priority 2008, dated 2016):

B1: SPAM1-FYNA: C-terminally truncated human PH20, precursor 484 aa (SEQ ID NO:16), mature 449 aa (SEQ ID NO:68) (protein, listed as Homo sapiens)
chain 1: MGVLKFKHIFFRSFVKSSGVSQIVFTFLLIPCCLTLNFRAPPVIPNVPFLWAWNAPSEFCLGKFDEPLDMSLFSFIGSPRINATGQGVTIFYVDRLGYYPYIDSITGVTVNGGIPQKISLQDHLDKAKKDITFYMPVDNLGMAVIDWEEWRPTWARNWKPKDVYKNRSIELVQQQNVQLSLTEATEKAKQEFEKAGKDFLVETIKLGKLLRPNHLWGYYLFPDCYNHHYKKPGYNGSCFNVEIKRNDDLSWLWNESTALYPSIYLNTQQSPVAATLYVRNRVREAIRVSKIPDAKSPLPVFAYTRIVFTDQVLKFLSQDELVYTFGETVALGASGIVIWGTLSIMRSMKSCLLLDNYMETILNPYIINVTLAAKMCSQVLCQEQGVCIRKNWNSSDYLHLNPDNFAIQLEKGGKFTVRGKPTLEDLEQFSEKFYCSCYSTLSCKEKADVKDTDAVDVCIADGVCIDAFLKPPMETEEPQIFYNA
chain 2: LNFRAPPVIPNVPFLWAWNAPSEFCLGKFDEPLDMSLFSFIGSPRINATGQGVTIFYVDRLGYYPYIDSITGVTVNGGIPQKISLQDHLDKAKKDITFYMPVDNLGMAVIDWEEWRPTWARNWKPKDVYKNRSIELVQQQNVQLSLTEATEKAKQEFEKAGKDFLVETIKLGKLLRPNHLWGYYLFPDCYNHHYKKPGYNGSCFNVEIKRNDDLSWLWNESTALYPSIYLNTQQSPVAATLYVRNRVREAIRVSKIPDAKSPLPVFAYTRIVFTDQVLKFLSQDELVYTFGETVALGASGIVIWGTLSIMRSMKSCLLLDNYMETILNPYIINVTLAAKMCSQVLCQEQGVCIRKNWNSSDYLHLNPDNFAIQLEKGGKFTVRGKPTLEDLEQFSEKFYCSCYSTLSCKEKADVKDTDAVDVCIADGVCIDAFLKPPMETEEPQIFYNA
modifications: HuPH20 precursor 1-484; Mature HuPH20 36-484
B2: SPAM1-EPQI: C-terminally truncated human PH20, precursor 480 aa (SEQ ID NO:20), mature 445 aa (SEQ ID NO:72) (protein, listed as Homo sapiens)
chain 1: MGVLKFKHIFFRSFVKSSGVSQIVFTFLLIPCCLTLNFRAPPVIPNVPFLWAWNAPSEFCLGKFDEPLDMSLFSFIGSPRINATGQGVTIFYVDRLGYYPYIDSITGVTVNGGIPQKISLQDHLDKAKKDITFYMPVDNLGMAVIDWEEWRPTWARNWKPKDVYKNRSIELVQQQNVQLSLTEATEKAKQEFEKAGKDFLVETIKLGKLLRPNHLWGYYLFPDCYNHHYKKPGYNGSCFNVEIKRNDDLSWLWNESTALYPSIYLNTQQSPVAATLYVRNRVREAIRVSKIPDAKSPLPVFAYTRIVFTDQVLKFLSQDELVYTFGETVALGASGIVIWGTLSIMRSMKSCLLLDNYMETILNPYIINVTLAAKMCSQVLCQEQGVCIRKNWNSSDYLHLNPDNFAIQLEKGGKFTVRGKPTLEDLEQFSEKFYCSCYSTLSCKEKADVKDTDAVDVCIADGVCIDAFLKPPMETEEPQI
chain 2: LNFRAPPVIPNVPFLWAWNAPSEFCLGKFDEPLDMSLFSFIGSPRINATGQGVTIFYVDRLGYYPYIDSITGVTVNGGIPQKISLQDHLDKAKKDITFYMPVDNLGMAVIDWEEWRPTWARNWKPKDVYKNRSIELVQQQNVQLSLTEATEKAKQEFEKAGKDFLVETIKLGKLLRPNHLWGYYLFPDCYNHHYKKPGYNGSCFNVEIKRNDDLSWLWNESTALYPSIYLNTQQSPVAATLYVRNRVREAIRVSKIPDAKSPLPVFAYTRIVFTDQVLKFLSQDELVYTFGETVALGASGIVIWGTLSIMRSMKSCLLLDNYMETILNPYIINVTLAAKMCSQVLCQEQGVCIRKNWNSSDYLHLNPDNFAIQLEKGGKFTVRGKPTLEDLEQFSEKFYCSCYSTLSCKEKADVKDTDAVDVCIADGVCIDAFLKPPMETEEPQI
modifications: HuPH20 precursor 1-480; Mature HuPH20 36-480
B3: SPAM1-IFYN: C-terminally truncated human PH20, precursor 483 aa (SEQ ID NO:17), mature 448 aa (SEQ ID NO:69) (protein, listed as Homo sapiens)
chain 1: MGVLKFKHIFFRSFVKSSGVSQIVFTFLLIPCCLTLNFRAPPVIPNVPFLWAWNAPSEFCLGKFDEPLDMSLFSFIGSPRINATGQGVTIFYVDRLGYYPYIDSITGVTVNGGIPQKISLQDHLDKAKKDITFYMPVDNLGMAVIDWEEWRPTWARNWKPKDVYKNRSIELVQQQNVQLSLTEATEKAKQEFEKAGKDFLVETIKLGKLLRPNHLWGYYLFPDCYNHHYKKPGYNGSCFNVEIKRNDDLSWLWNESTALYPSIYLNTQQSPVAATLYVRNRVREAIRVSKIPDAKSPLPVFAYTRIVFTDQVLKFLSQDELVYTFGETVALGASGIVIWGTLSIMRSMKSCLLLDNYMETILNPYIINVTLAAKMCSQVLCQEQGVCIRKNWNSSDYLHLNPDNFAIQLEKGGKFTVRGKPTLEDLEQFSEKFYCSCYSTLSCKEKADVKDTDAVDVCIADGVCIDAFLKPPMETEEPQIFYN
chain 2: LNFRAPPVIPNVPFLWAWNAPSEFCLGKFDEPLDMSLFSFIGSPRINATGQGVTIFYVDRLGYYPYIDSITGVTVNGGIPQKISLQDHLDKAKKDITFYMPVDNLGMAVIDWEEWRPTWARNWKPKDVYKNRSIELVQQQNVQLSLTEATEKAKQEFEKAGKDFLVETIKLGKLLRPNHLWGYYLFPDCYNHHYKKPGYNGSCFNVEIKRNDDLSWLWNESTALYPSIYLNTQQSPVAATLYVRNRVREAIRVSKIPDAKSPLPVFAYTRIVFTDQVLKFLSQDELVYTFGETVALGASGIVIWGTLSIMRSMKSCLLLDNYMETILNPYIINVTLAAKMCSQVLCQEQGVCIRKNWNSSDYLHLNPDNFAIQLEKGGKFTVRGKPTLEDLEQFSEKFYCSCYSTLSCKEKADVKDTDAVDVCIADGVCIDAFLKPPMETEEPQIFYN
modifications: HuPH20 precursor 1-483; Mature HuPH20 36-483
B4: SPAM1-QIFY: C-terminally truncated human PH20, precursor 482 aa (SEQ ID NO:18), mature 447 aa (SEQ ID NO:70) (protein, listed as Homo sapiens)
chain 1: MGVLKFKHIFFRSFVKSSGVSQIVFTFLLIPCCLTLNFRAPPVIPNVPFLWAWNAPSEFCLGKFDEPLDMSLFSFIGSPRINATGQGVTIFYVDRLGYYPYIDSITGVTVNGGIPQKISLQDHLDKAKKDITFYMPVDNLGMAVIDWEEWRPTWARNWKPKDVYKNRSIELVQQQNVQLSLTEATEKAKQEFEKAGKDFLVETIKLGKLLRPNHLWGYYLFPDCYNHHYKKPGYNGSCFNVEIKRNDDLSWLWNESTALYPSIYLNTQQSPVAATLYVRNRVREAIRVSKIPDAKSPLPVFAYTRIVFTDQVLKFLSQDELVYTFGETVALGASGIVIWGTLSIMRSMKSCLLLDNYMETILNPYIINVTLAAKMCSQVLCQEQGVCIRKNWNSSDYLHLNPDNFAIQLEKGGKFTVRGKPTLEDLEQFSEKFYCSCYSTLSCKEKADVKDTDAVDVCIADGVCIDAFLKPPMETEEPQIFY
chain 2: LNFRAPPVIPNVPFLWAWNAPSEFCLGKFDEPLDMSLFSFIGSPRINATGQGVTIFYVDRLGYYPYIDSITGVTVNGGIPQKISLQDHLDKAKKDITFYMPVDNLGMAVIDWEEWRPTWARNWKPKDVYKNRSIELVQQQNVQLSLTEATEKAKQEFEKAGKDFLVETIKLGKLLRPNHLWGYYLFPDCYNHHYKKPGYNGSCFNVEIKRNDDLSWLWNESTALYPSIYLNTQQSPVAATLYVRNRVREAIRVSKIPDAKSPLPVFAYTRIVFTDQVLKFLSQDELVYTFGETVALGASGIVIWGTLSIMRSMKSCLLLDNYMETILNPYIINVTLAAKMCSQVLCQEQGVCIRKNWNSSDYLHLNPDNFAIQLEKGGKFTVRGKPTLEDLEQFSEKFYCSCYSTLSCKEKADVKDTDAVDVCIADGVCIDAFLKPPMETEEPQIFY
modifications: HuPH20 precursor 1-482; Mature HuPH20 36-482
B5: SPAM1-PQIF: C-terminally truncated human PH20, precursor 481 aa (SEQ ID NO:19), mature 446 aa (SEQ ID NO:71) (protein, listed as Homo sapiens)
chain 1: MGVLKFKHIFFRSFVKSSGVSQIVFTFLLIPCCLTLNFRAPPVIPNVPFLWAWNAPSEFCLGKFDEPLDMSLFSFIGSPRINATGQGVTIFYVDRLGYYPYIDSITGVTVNGGIPQKISLQDHLDKAKKDITFYMPVDNLGMAVIDWEEWRPTWARNWKPKDVYKNRSIELVQQQNVQLSLTEATEKAKQEFEKAGKDFLVETIKLGKLLRPNHLWGYYLFPDCYNHHYKKPGYNGSCFNVEIKRNDDLSWLWNESTALYPSIYLNTQQSPVAATLYVRNRVREAIRVSKIPDAKSPLPVFAYTRIVFTDQVLKFLSQDELVYTFGETVALGASGIVIWGTLSIMRSMKSCLLLDNYMETILNPYIINVTLAAKMCSQVLCQEQGVCIRKNWNSSDYLHLNPDNFAIQLEKGGKFTVRGKPTLEDLEQFSEKFYCSCYSTLSCKEKADVKDTDAVDVCIADGVCIDAFLKPPMETEEPQIF
chain 2: LNFRAPPVIPNVPFLWAWNAPSEFCLGKFDEPLDMSLFSFIGSPRINATGQGVTIFYVDRLGYYPYIDSITGVTVNGGIPQKISLQDHLDKAKKDITFYMPVDNLGMAVIDWEEWRPTWARNWKPKDVYKNRSIELVQQQNVQLSLTEATEKAKQEFEKAGKDFLVETIKLGKLLRPNHLWGYYLFPDCYNHHYKKPGYNGSCFNVEIKRNDDLSWLWNESTALYPSIYLNTQQSPVAATLYVRNRVREAIRVSKIPDAKSPLPVFAYTRIVFTDQVLKFLSQDELVYTFGETVALGASGIVIWGTLSIMRSMKSCLLLDNYMETILNPYIINVTLAAKMCSQVLCQEQGVCIRKNWNSSDYLHLNPDNFAIQLEKGGKFTVRGKPTLEDLEQFSEKFYCSCYSTLSCKEKADVKDTDAVDVCIADGVCIDAFLKPPMETEEPQIF
modifications: HuPH20 precursor 1-481; Mature HuPH20 36-481

Test system: CHO-S cells
Experiment: Western blot analysis of PH20 expression in media and cells after transient expression
Assay type: cell-based, Chinese Hamster
Settings: media versus cells
In short: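 CHO-S cells were transiently transfected with mutant PH20-HZ24 plasmids using GeneJuice and expressed for 48-72 h at 37 °C, 5% CO2. Media and cells were harvested separately, with PI-PLC treatment used to release GPI-anchored protein. Non-reduced samples were blotted with rabbit anti-PH20 (0.5 μg/mL), and a band near 66 kDa was scored as PH20.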

| Molecule | Expressed in Media |
| --- | --- |
| B1 | YES |
| B2 | YES |
| B3 | YES |
| B4 | YES |
| B5 | YES |

Test system: not listed separately
Experiment: Microtiter hyaluronidase activity assay with biotinylated-hyaluronic acid
Assay type: biochemical
Settings: Table 6; 72 hour post transfection supernatant; pH 5.5

| pH 5.5 Activity [Units/ml] | Molecule |
| --- | --- |
| 1.262 | B1 |
| 1.6425 | B2 |
| 2.3085 | B3 |
| 1.647 | B4 |
| 1.701 | B5 |

Same assay, conditions: Table 6; 72 hour post transfection supernatant; pH 7.4

| pH 7.4 Activity [Units/ml] | Molecule |
| --- | --- |
| 1.4985 | B1 |
| 2.1825 | B2 |
| 2.45 | B3 |
| 2.032 | B4 |
| 1.818 | B5 |
